The values below come from article PMC5716094.

Read-outs that look alike come from different tables or passages of the source.

Data set [1] deals with T1, ΔBTRF2 (human, UniProt Q15554 87-542, del43-86). Briefly: fluorescence anisotropy. (In general: Polarisation of emitted light reports the rotation of a fluorescent probe.)
The target in data set [2] is T2, TRF2 (human, UniProt Q15554 43-542). Briefly: fluorescence anisotropy.
The next data set deals with T3, B-domain of TRF2 (human, UniProt Q15554 43-86).
T3 chain: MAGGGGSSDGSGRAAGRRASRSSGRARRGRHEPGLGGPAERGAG
As to the kind of experiment: SAXS.

Data set [3] addresses T1, ΔBTRF2. As to the kind of experiment: fluorescence anisotropy. The source holds these as a separate data set.
For data set [4], the target named is T2, TRF2. As to the kind of experiment: fluorescence anisotropy. The source holds these as a separate data set.

T1 sequence (Q15554 87-542, stated change not applied): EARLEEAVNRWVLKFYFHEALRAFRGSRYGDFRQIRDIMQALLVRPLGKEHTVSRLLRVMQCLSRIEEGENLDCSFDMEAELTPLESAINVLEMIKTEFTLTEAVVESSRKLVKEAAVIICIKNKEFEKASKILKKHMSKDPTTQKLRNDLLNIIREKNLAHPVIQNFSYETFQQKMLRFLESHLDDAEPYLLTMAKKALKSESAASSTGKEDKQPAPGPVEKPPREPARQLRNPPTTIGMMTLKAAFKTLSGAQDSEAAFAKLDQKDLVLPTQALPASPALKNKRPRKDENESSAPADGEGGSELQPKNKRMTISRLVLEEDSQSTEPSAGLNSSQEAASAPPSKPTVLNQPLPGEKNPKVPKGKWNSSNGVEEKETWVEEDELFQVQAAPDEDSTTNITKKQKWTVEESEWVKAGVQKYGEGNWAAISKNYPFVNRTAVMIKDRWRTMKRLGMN

B1: R2 duplex (dsDNA)
DNA 1: GTTAGGGTTAGGGTTAG
DNA 2: CTAACCCTAACCCTAAC
As to B1, the binding result with ΔBTRF2 [1] and with B-domain of TRF2 was “binds” each time. Moreover, in the data set with TRF2 [2], the binding signal was ~2 fold lower Kd than ΔBTRF2.

B2: R5 duplex (dsDNA)
DNA 1: GTTAGGGTTAGGGTTAGGGTTAGGGTTAGGGTTAG
DNA 2: CTAACCCTAACCCTAACCCTAACCCTAACCCTAAC
As to B2, the figures for the binding signal with ΔBTRF2 [3] and with TRF2 [4] were ~2 fold higher Kd than TRF2 and ~2 fold lower Kd than ΔBTRF2, respectively.
